“Also recorded” adds a separate entry of the source. Like-named read-outs stand apart in the source and are kept apart here.
Experiments:
[1] = test system: A/Aichi/02/1968-X31 (H3N2); parameters: species or system BALB/c mice; conditions: mouse, in vivo
group 1 strains (HA) = format: binding, influenza A virus
[2] = test system: A/Aichi/02/1968-PR8-X31(H3N2)-infected MDCKs; format: cell-based, canine
[3] = target: A/Hiroshima/52/2005 (H3) HA foldon protein; format: binding, influenza A virus
[4] = target: A/Shanghai/01/2013 (H7) HA foldon protein; format: binding, influenza A virus; conditions: 37° C.
[5] = test system: A/Victoria/316/2011 (H3N2); format: cell-based, influenza A virus
[6] = test system: A/Aichi/02/1968-X31 (H3N2); parameters: species or system BALB/c mice; conditions: mouse, in vivo, iv, 15 mg/kg
[7] = test system: A/Aichi/02/1968-PR8-X31 (H3N2); format: cell-based, influenza A virus; conditions: read-out: Neutralization activity IC50
[8] = test system: A/Shanghai/01/2013-PR8 (H7N9); format: cell-based, influenza A virus; conditions: read-out: Neutralization activity IC50
[9] = test system: A/Philippines/01/1982 (H3N2); format: cell-based, influenza A virus; conditions: read-out: Neutralization activity IC50

CCOC(=O)C1=C[C@@H](OC(CC)CC)[C@H](NC(C)=O)[C@@H](N)C1 [oseltamivir, reference compound] gave a survival [1] of 80%.

B1: H1H14611N2: fully human anti-influenza A group 2 HA monoclonal antibody, HCVR/LCVR SEQ ID NOs: 2/10 (antibody, V domains shown)
VH: EVQLVESGGGLVKPGGSLRLSCAASGFTFSGFSMNWVRQVPGKGLEWVSSISTSGNYMYYADSVKGRFTISRDNAKKSFSLQMNSLRAEDSAIYYCARGGGYNWNLFDYWGQGSLVTVSS
VL: EIVLTQSPGTLSLSPGERATLSCRASQSLNSNYLAWYQQKPGQAPRLLIYGASSRATGIPDRFSGSGSGTDFTLTITRLESEDFAVYYCQQYGNSPLTFGGGTKVEIK
In the case of B1, the “binding to group 1 strains” value (group 1 strains (HA)) is reported as “did not bind”, the “maximum lysis (percent specific lysis)” value [2] is reported as 78.3% and the Kd [3] is reported as 8.22 nM. The KD [4] was “IC^§”, the “lowest concentration of mAb where no RBC hemagglutination was detected” value [5] was 41.7 nM and the “effect when dosed in combination with oseltamivir” value [1] was “additive protective effect; also recorded: additive efficacy”. For the same molecule, the survival ([1]; 7 mg/kg) was 80%, the survival ([1]; 15 mg/kg) was 100% and the survival [6] was “One hundred percent survival; also recorded: survived; also recorded: complete protection”.

B2: H1H14612N2: fully human anti-influenza A group 2 HA monoclonal antibody, HCVR/LCVR SEQ ID NOs: 18/26 (antibody, V domains shown)
VH: EVQLVESGGGLVKPGGSLRLSCAASGFSFSGFSMNWVRQAPGKGLEWVSSISTSGNYMYYADSVKGRFTISRDNAKKSFSLQMNSLRAEDSAIYYCARGGGYNWNLFDYWGQGSLVTVSS
VL: EIVLTQSPGTLSLSPGERATLSCRASQSLNSNYLAWYQQKPGQAPRLLIYGASSRATGIPDRFSGSGSGADFTLTISRLESEDFAVYYCQQYGNSPLTFGGGTKVEIK
Molecule B2 has an IC50 [7] of 5.7 nM, an IC50 [8] greater than 6670 nM and an IC50 [9] of 37.6 nM. The “maximum lysis (percent specific lysis)” value [2] was 86.3%, the EC50 ([2]; read-out: CDC EC50) was 126 nM and the “lowest concentration of mAb where no RBC hemagglutination was detected” value [5] was 166.7 nM. For the same molecule, the survival [6] was “One hundred percent survival; also recorded: survived; also recorded: complete protection”.
